Laboratory results reported in patent publication US20210277122A1 (SHANGHAI HENLIUS BIOTECH, published 2021).

Columns and labels:
[1] = target: T1, PD-1-His (purified recombinant 6xHis-tagged PD-1_ECD) (UniProt Q15116 25-170); experiment: SPR, antibody captured on anti-human IgG Fc, PD-1-His analyte, 25 C, 1:1 Langmuir
T1 construct: extracellular domain

[2] = target: T1, PD-1-His (purified recombinant …); experiment: blocking ELISA: antibody dilutions mixed with PD-L1-AP, added to PD-1-His coated wells, OD405
[3] = target: T1, PD-1-His (purified recombinant …); experiment: SPR, full-length IgG, PD-1-His analyte (method of Example 3)
[4] = target: T1, PD-1-His (purified recombinant …); experiment: SPR, affinity improvement against the referenced anti-PD-1 antibody
[5] = target: T2, recombinant human PD-1 at the cell surface (PD-1 transfected CHO-S cells) (human, UniProt Q15116 25-288); experiment: blocking flow cytometry: PD-1 expressing CHO-S cells incubated with antibody, washed, then biotin-labeled PD-L1-Fc and streptavidin-PE, MFI
T2 construct: whole, on cells; Also used as the target in the mixed leukocyte reaction rows, where it is human PD-1 on T cells; also called PD-1 expressing CHO-S cells; PD-1 expressed CHO-S cells

[6] = target: T1, PD-1-His (purified recombinant …); experiment: ELISA on PD-1-His, anti-human IgG Fc-HRP, OD450
[7] = target: T1, PD-1-His (purified recombinant …); experiment: competition ELISA: antibody dilutions pre-mixed with PD-1-His (0.1 µg/ml), then added to a plate coated with the referenced anti-PD-1 (4 µg/ml); anti-His-HRP, OD450
[8] = target: T1, PD-1-His (purified recombinant …); experiment: SPR, affinity improvement against anti-PD-1 ref
[9] = target: T1, PD-1-His (purified recombinant …); experiment: competition ELISA: PD-1-His (0.1 µg/ml) first bound to a plate coated with the referenced anti-PD-1 (4 µg/ml), antibody dilutions added afterwards; anti-His-HRP, OD450
[10] = target: T3, PD-1 on activated human T cells; experiment: flow cytometry on PHA-activated human T cells, FITC-labeled anti-human IgG Fcγ, MFI
T3 construct: the sheet names no target

[11] = target: T4, Human PD-1 (human); experiment: ELISA on immobilized human PD-1/Fc (9 ng per well), peroxidase-labeled anti-human IgG F(ab)'2, OD450nm
T4 construct: PD-1 part of a purchased recombinant PD-1/Fc fusion protein; immobilized at 9 ng per well; also called recombinant human PD-1 fusion protein; PD-1/Fc (Sino Biological Inc.)

[12] = target: T5, Cynomolgus PD-1 (cynomolgus monkey); experiment: ELISA on immobilized cynomolgus monkey PD-1/Fc (9 ng per well), peroxidase-labeled anti-human IgG F(ab)'2, OD450nm
T5 construct: PD-1 part of a purchased recombinant PD-1/Fc fusion protein; immobilized at 9 ng per well; also called recombinant cynomolgus monkey PD-1 fusion protein; PD-1/Fc (Sino Biological Inc.)

T1 sequence (Q15116 other isoform, or with tags, fused parts or gaps limits assumed): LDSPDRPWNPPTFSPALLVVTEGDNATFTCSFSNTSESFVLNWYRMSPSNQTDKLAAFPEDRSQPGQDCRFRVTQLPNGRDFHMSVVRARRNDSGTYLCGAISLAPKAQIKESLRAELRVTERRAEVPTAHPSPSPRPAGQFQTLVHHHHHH
T4 sequence (Q15116 25-170): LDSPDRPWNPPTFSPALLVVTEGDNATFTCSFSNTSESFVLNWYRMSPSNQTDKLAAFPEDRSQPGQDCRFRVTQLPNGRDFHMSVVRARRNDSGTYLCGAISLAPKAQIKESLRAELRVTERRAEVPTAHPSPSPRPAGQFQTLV
T2 sequence (Q15116 25-288): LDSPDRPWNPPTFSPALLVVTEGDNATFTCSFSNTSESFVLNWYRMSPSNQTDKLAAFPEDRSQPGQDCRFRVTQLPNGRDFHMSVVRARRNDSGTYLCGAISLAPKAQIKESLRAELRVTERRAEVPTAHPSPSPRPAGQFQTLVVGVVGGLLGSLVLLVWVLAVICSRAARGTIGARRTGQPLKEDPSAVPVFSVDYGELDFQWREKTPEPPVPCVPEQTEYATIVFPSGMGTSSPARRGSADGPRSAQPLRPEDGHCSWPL
T3 sequence (chain, as listed by the source limits assumed): as the sequence (Q15116 25-288) above

Binder	Kd [1]	koff [1]	kon [1]	IC50 (read off the curve) [2]	Kd [3]	koff [3]	kon [3]	Improvement [4]	IC50 (read off the curve) [5]	EC50 (read off the curve) [6]	IC50 (read off the curve) [7]	Improvement [8]	IC50 (read off the curve) [9]	EC50 (read off the curve) [10]	EC50 (read off the curve) [11]	EC50 (read off the curve) [12]
chimeric anti-PD-1 antibody c1G4 (antibody, human IgG4 S228P, kappa, V domains shown, also called chimeric c1G4) VH: EVMLVESGGGLVKPGGSLKLSCAASGFTFSNYGMSWVRQTPEKSLEWVATISGGGSNIYYPDSVKGRFTISRDNAKNNLFLQMSGLRSEDTALYYCVSYYYGIDFWGQGTSVTVSS VL: DIVMTQSHKFMSTSVGDRVSITCKASQDVTTAVAWYQQKPGQSPKLLIYWASTRHTGVPDRFTGSGSGTDYTLTINSVQAEDLALYYCQQHYTIPWTFGGGTKLEIKR	0.434 nM	0.000104 s⁻¹	244000 M⁻¹ s⁻¹	~0.4 µg/mL	0.325 nM	0.000177 s⁻¹	550000 M⁻¹ s⁻¹	9.38 fold	~0.6 µg/mL	~0.04 µg/mL	~0.5 µg/mL	4.07 fold	~0.8 µg/mL			
humanized anti-PD-1 antibody 1G4 (h1G4) (antibody, human IgG4 S228P, kappa, V domains shown, CDRs of c1G4 grafted onto IGKV1-39*01 and IGHV3-11*04; also called HLX10; humanized h1G4) VH: QVQLVESGGGLVKPGGSLRLSCAASGFTFSNYGMSWIRQAPGKGLEWVSTISGGGSNIYYADSVKGRFTISRDNAKNSLYLQMNSLRAEDTAVYYCVSYYYGIDFWGQGTSVTVSS VL: DIQMTQSPSSLSASVGDRVTITCKASQDVTTAVAWYQQKPGKAPKLLIYWASTRHTGVPSRFSGSGSGTDFTLTISSLQPEDFATYYCQQHYTIPWTFGGGTKLEIKR	0.265 nM	7.98e-05 s⁻¹	310000 M⁻¹ s⁻¹		0.479 nM	0.000216 s⁻¹	457000 M⁻¹ s⁻¹	6.37 fold				6.66 fold		~0.1 µg/mL	~0.03 µg/mL	~0.04 µg/mL
referenced anti-PD-1 antibody (antibody, human IgG4 S228P, kappa, V domains shown) VH: QVQLVESGGGVVQPGRSLRLDCKASGITFSNSGMHWVRQAPGKGLEWVAVIWYDGSKRYYADSVKGRFTISRDNSKNTLFLQMNSLRAEDTAVYYCATNDDYWGQGTLVTVSS VL: EIVLTQSPATLSLSPGERATLSCRASQSVSSYLAWYQQKPGQAPRLLIYDASNRATGIPARFSGSGSGTDFTLTISSLEPEDFAVYYCQQSSNWPRTFGQGTKVEIKR															~0.02 µg/mL	~0.03 µg/mL
